Measured values from patent US20180280528A1, “ANTIFOLATE CONJUGATES FOR TREATING INFLAMMATION” (ENDOCYTE, INC., priority 2015, published 2018).

Columns and labels:
[1] = Plasma protein binding by ultrafiltration, human plasma; format: in vitro ADME; conditions: 500 nM
Protocol: (§1) EC2319 and EC1669 plasma protein binding was evaluated by ultra filtration using VWR 30K MWCO modified PES filters. 250 μL of 500 nM EC2319 or EC1669 in K3EDTA plasma incubated at 37° C. was added to the upper filter vessel. 50 μL was immediately removed as the donor plasma sample and aliquoted into a clean 1.2 mL plate. […] An aliquot of […] plasma ultrafiltrate was then added to the 1.2 mL plate as the receiver sample. To each plasma sample, 50 μL of plasma ultrafiltrate was added, and each ultrafiltrate sample received 50 μL of plasma to mitigate matrix effects. N-Maleoyl-β-alanine, mannitol, and acetic acid were added at the end of each experiment to stabilize the samples prior to LC-MS/MS analysis.

[2] = Incubation with THP-1 FRβ cell lysates; format: in vitro ADME, human; conditions: THP-1 FRβ lysate, pH 4.5, 37° C., 2 hours
Protocol: (§2) To 100 μL AIA rat macrophage, RAW264.7 or THP-1 FRβ cell lysates (each containing 10 million cells/mL 0.1 M sodium acetate, Ph 4.5) was added 2 μL of a 50 μM solution of EC2319 or EC1669 (Endocyte, Inc.). The solutions were incubated at 37° C. in a heat block (VWR International, Radnor, Pa.) for 2 hours. The reaction was terminated by the addition of 5 µL of stabilizer solution and 100 μL of acetonitrile containing d5-aminopterin (Endocyte, Inc.). The rest of the workup is as described above.

[3] = Incubation with AIA rat macrophage cell lysates; format: in vitro ADME; conditions: AIA rat macrophage lysate, pH 4.5, 37° C., 2 hours
Protocol: Prior to immunization with adjuvant, female Lewis rats were fed a folate-deficient diet (Harlan Teklad, Indianapolis, Ind.) for approximately 10 days to reduce serum folate competition from high-folate-containing regular rodent chow. The rats were then inoculated intradermally (at the base of tail) with 0.5 mg heat-killed M. butyricum (BD Diagnostic Systems, Franklin Lakes, N.J.) in 100 μL light mineral oil (Sigma-Aldrich, St Louis, Mo., USA). The rats were then allowed to develop arthritis scores between 3 and 4 as described in Lu et al. (Arthritis Research & Therapy 2011, 13:R56). After rats developed severe joint inflammation, AIA rat peritoneal cells were isolated, plated, and whole cell lysates were prepared as described above with the exception that the lysates were resuspended in 0.1 M sodium acetate buffer, pH 4.5, to make a concentration of cell lysates equivalent to 10 million cells/mL of 0.1 M sodium acetate buffer, pH 4.5.
as §2, with “The rest of the workup is as described above.” left out

[4] = Plasma protein binding by ultrafiltration, rat plasma; format: in vitro ADME; conditions: 500 nM
Protocol: as §1

[5] = Release of aminopterin in dog hepatic cytosol; format: in vitro ADME; conditions: 5% dog liver cytosol, 1 hour; for pH dependence of aminopterin release from the conjugate: pH 4.5, 6.0, 7.4, 37° C.
Protocol: (§3) EC2319 and EC1669 were incubated in 5% rat, dog, and human hepatic cytosol at different pH's to look at release of aminopterin from these conjugates. Liver cytosols from male Sprague-Dawley rats (Lot No. 1110428), male beagle dogs (Lot no. 1310024), and male humans (Lot No. 0710493), all containing 10 mg/mL protein, were obtained from Xenotech LLC (Lenexa, Kans.). These were diluted 20× in either 0.5 M sodium acetate buffer, pH 4.5, 0.5 M sodium acetate buffer, 6.0, or 0.5 M potassium phosphate buffer, pH 7.4 in a final volume of 500 μL. Reactions were initiated by the addition of 1 μL of either EC2319 or EC1669 and the reaction mixtures incubated at 37° C. for 1 hour. At the end of the incubation, a 100 μL aliquot was withdrawn into a cluster tube and the reaction was terminated by the addition of 5 μL of stabilizer solution (containing 8.5 mg/ml N-Maleoyl-β-alanine, 20 mg/mL mannitol and 0.075% acetic acid) and 100 μL of acetonitrile containing d5-aminopterin. The tubes were vortexed and then centrifuged at 4000 rpm for 10 minutes (Eppendorf centrifuge 5810R). 150 μL of the supernatant was transferred to 96-well plates and the acetonitrile evaporated off under nitrogen at 35° C. for 5 minutes. The extract was diluted with 50 μL of mobile phase A. The plate was vortexed on a VX-2500 multi-tube vortexer (VWR International, Radnor, Pa.) and the extract analyzed by LC-MS/MS.

[6] = Release of aminopterin in rat hepatic cytosol; format: in vitro ADME; conditions: 5% rat liver cytosol, 1 hour; for pH dependence of aminopterin release from the conjugate: pH 4.5, 6.0, 7.4, 37° C.
Protocol: as §3

Pharmacokinetics in rats = conditions: female, Lewis, rat, in vivo, sc, 500 nmol/kg; for AUC(0-inf): AUCinf
Protocol: Each rat was used for collection of blood samples for a maximum of 4 time points. […] The samples were centrifuged for 3 minutes at 2000×g (Eppendorf 5417R centrifuge) to obtain plasma. The plasma samples were stored at −80° C. until LC-MS/MS analysis.
LC-MS/MS analysis utilized a Waters Acquity UPLC system paired with a Waters Quattro Premier XE tandem quadrupole mass spectrometer operating in ESI positive mode. Prior to injection, K3EDTA plasma samples were processed using a Phenomenex Strata X-A solid phase extraction (SPE) plate. All plasma samples were fortified with N-Maleoyl-β-alanine, mannitol, and acetic acid. Briefly, 50 μL of plasma diluted with 50 μL of internal standard solution and 500 μL 1000:4:1.5 water:ammonium hydroxide:formic acid was mixed and loaded onto a preconditioned Strata X-A SPE plate. Aqueous and organic washes were then applied followed by elution of all analytes with 300:200:7.5 methanol:water:formic acid. The samples were evaporated until approximately 30 μL remained in all wells and 30 μL of 9:1 water:ammonium hydroxide was then added. Finally, the plate was sealed, mixed, and centrifuged prior to transfer to the 2-8° C. Acquity autosampler. Note: During EC1669 analysis, EC0470 was converted to a hydrazone product for bioanalysis. Acetone (500 μL) was added to all samples after the first evaporation step followed by sealing all wells and heating at 50° C. for one hour. After this step, the acetone was evaporated and the extraction completed as described above.
A 10 μL sample volume was applied to the Waters BEH Shield RP18 100×2.1 mm, […] UPLC column operating at a flow rate of 0.4 mL/min while being maintained at 45° C. A gradient between mobile phase A (1000:4:1.5 water:ammonium hydroxide:formic acid) and mobile phase B (acetonitrile) was used to separate the analytes. The gradient was held at 2% B for the first 30 seconds of the chromatographic run followed by increasing to 20% B by 2.5 minutes. A rapid gradient from 60-90% B is then used to clean the column prior to equilibration at 2% B to complete the 4 minute run cycle.
For EC1669 MS/MS analysis, EC1669 and its known major metabolites, EC1886 and […], were optimized and monitored. […] In all cases, internal standard response was used to generate response ratios for each analyte. When calibrated, data was regressed using MassLynx 4.1 software. The table below lists transitions for analytes and internal standards monitored for LC-MS/MS bioanalysis.

Row | SMILES | plasma protein binding [1] | aminopterin release [2] | aminopterin release [3] | plasma protein binding [4] | pH dependence of aminopterin release from the conjugate [5] | pH dependence of aminopterin release from the conjugate [6] | Cmax (Pharmacokinetics in rats) | Tmax (Pharmacokinetics in rats) | half-life (Pharmacokinetics in rats) | AUC(0-inf) (Pharmacokinetics in rats; rat plasma, EC1669 dosed SC 500 nmol/kg) | AUC(0-t) (Pharmacokinetics in rats; AUClast, rat plasma, EC1669 dosed SC 500 nmol/kg) | magnitude of aminopterin release ([5]; 37° C.) | magnitude of aminopterin release ([6]; 37° C.) | AUC(0-inf) (Pharmacokinetics in rats; rat plasma, EC2319 dosed SC 500 nmol/kg)
1 | N=c1[nH]c(N)nc2ncc(CNc3ccc(C(=O)N[C@@H](CCC(=O)NNC(=O)OCCSSC[C@@H](NC(=O)[C@H](CCC(=O)NC[C@H](O)[C@@H](O)[C@H](O)[C@H](O)CO)NC(=O)[C@@H](CCC(=O)O)NC(=O)[C@H](CCC(=O)NC[C@H](O)[C@@H](O)[C@H](O)[C@H](O)CO)NC(=O)[C@@H](CCC(=O)O)NC(=O)[C@H](CCC(=O)NC[C@H](O)[C@@H](O)[C@H](O)[C@H](O)CO)NC(=O)CC[C@H](NC(=O)c4ccc(NCc5cnc6nc(N)[nH]c(=O)c6n5)cc4)C(=O)O)C(=O)O)C(=O)O)cc3)nc12 [EC1669, reference compound] | high plasma protein binding | greater from EC1669 than from EC2319 | greater from EC1669 than from EC2319 | high plasma protein binding | highest at pH 4.5 | broad pH specificity | 472 nM | 30 min | 27.8 min | 0.86 µM·h | 0.857 µM·h |  |  | 
2 | COC(=O)[C@H](CSSC(C)(C)[C@H](NC(=O)[C@H](CCC(=O)NC[C@H](O)[C@@H](O)[C@H](O)[C@H](O)CO)NC(=O)[C@H](CCC(=O)O)NC(=O)[C@H](CCC(=O)NC[C@H](O)[C@@H](O)[C@H](O)[C@H](O)CO)NC(=O)[C@H](CCC(=O)O)NC(=O)[C@H](CCC(=O)NC[C@H](O)[C@@H](O)[C@H](O)[C@H](O)CO)NC(=O)CC[C@H](NC(=O)c1ccc(NCc2cnc3nc(N)[nH]c(=O)c3n2)cc1)C(=O)O)C(=O)O)NC(=O)CC[C@H](NC(=O)c1ccc(NCc2cnc3nc(N)nc(N)c3n2)cc1)C(=O)O [EC2319] | higher plasma protein binding than did EC1669 | aminopterin release was observed | aminopterin release was observed | higher plasma protein binding than did EC1669 | highest at pH 4.5 | broad pH specificity |  |  |  |  |  | lower than that from EC1669 | lower than that from EC1669 | 1.02 µM·h
